{
  "source": "patent US20250003966",
  "system": "substrate protein (Seq Id no. 1) (URSCREENSARS-COV-2)",
  "data": [
    {"substance": "trypsin", "values": [
      {"measurement": "cleavage bands on 15% SDS-PAGE (Sypro Ruby stain)", "result": "We could clearly see the cleavage bands of expected molecular weight after gel staining"}
    ]}
  ]
}
